Measurements reported in the supplement of paper PMC7877785.
± gives the uncertainty stated by the source.

Test: self-splicing fitness, log relative to wild type (ln ratio); higher = more splicing; Tetrahymena group I intron in knt gene, E. coli kanamycin selection, DiMSum; sequences stand for … in CUCUCU…GGAGGGAAAAGUUAUCAGGCAUGCACCUGGUAGCUAGUCUUUAAACCAAUAGAUUGCAUCGGUUUAAAAGGCAAGACCGUCAAAUUGCGGGAAAGGGGUCAACAGCCGUUCAGUACCAAGUCUCAGGGGAAACUUUGAGAUGGCCUUGCAAAGGGUAUGGUAAUAAGCUGACGGACAUGGUCCUAACCACGCAGCCAAGUCCUAAGUCAACAGAUCUUCUGUUGAUAUGGAUGCAGUUCACAGACUAAAUGUCGGUCGGGGAAGAUGUAUUCUUCUCAUAAGAUAUAGUCGGACCUCUCCUUAAUGGGAGCUAGCGGAUGAAGUGAUGCAACACUGGAGCCGCUGGGAACUAAUUUGUAUGCGAAAGUAUAUUGAUUAGUUUUGGAGUACUCGUGGUCG
Procedure, shortened: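 A randomised library covering all eight P1ex-region intron nucleotides was built with the intron in the knt kanamycin-resistance gene on pET-22b(+) and held in E. coli BL21(DE3). Cells were grown overnight at 37°C or 30°C on LB agar, with or without 25 μg/mL kanamycin, plus 100 μg/mL carbenicillin, 50 μM IPTG and 0.2% rhamnose, and pooled colonies were amplicon-sequenced on an Illumina HiSeq 2500. DiMSum fitness is the error-weighted combination of wild-type-normalised replicate fold changes, kanamycin versus none.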

Sequence	self-splicing fitness (ln) (30 °C)	self-splicing fitness (ln) (37 °C)
AUCAAGCAAUAUUACGACUC	-0.467 ± 0.1	-0.0986 ± 0.14
AUCAAGCAAUAUUACGAGAG	-3.32 ± 0.16	-1.76 ± 0.11
AUCAAGCAAUAUUACGAGGG	-2.85 ± 0.19	-1.39 ± 0.19
AUCAAGCAAUAUUACGAGGU	-3.52 ± 0.2	-3.4 ± 0.33
AUCAAGCAAUAUUACGAUAA	-1.99 ± 0.11	-0.292 ± 0.092
AUCAAGCAAUAUUACGCAAU	-2.22 ± 0.14	-1.56 ± 0.14
AUCAAGCAAUAUUACGCCAC	-1.42 ± 0.29	-1.79 ± 0.4
AUCAAGCAAUAUUACGCGUA	-1.02 ± 0.086	-0.375 ± 0.08
AUCAAGCAAUAUUACGCGUG	-2.23 ± 0.08	-0.744 ± 0.084
AUCAAGCAAUAUUACGCUAU	-3.18 ± 0.16	-0.907 ± 0.12
AUCAAGCAAUAUUACGCUUG	-4.23 ± 0.39	-2.6 ± 0.22
AUCAAGCAAUAUUACGGCAU	-0.523 ± 0.067	0.787 ± 0.088
AUCAAGCAAUAUUACGGGGA	-1.43 ± 0.12	-1.49 ± 0.13
AUCAAGCAAUAUUACGGUGC	-3.24 ± 0.17	-3.12 ± 0.24
AUCAAGCAAUAUUACGGUUU	-1.29 ± 0.073	-0.35 ± 0.075
AUCAAGCAAUAUUACGUAGG	-2.91 ± 0.1	-1.51 ± 0.11
AUCAAGCAAUAUUACGUCAG	-3.41 ± 0.18	-1.92 ± 0.16
AUCAAGCAAUAUUACGUGGA	-2.28 ± 0.14	-1.71 ± 0.12
AUCAAGCAAUAUUACGUUGA	-2.52 ± 0.1	-1.8 ± 0.12
AUCCAGCAAUAUUACGAAAU	-0.769 ± 0.084	-0.546 ± 0.11
AUCCAGCAAUAUUACGAAGU	-1.21 ± 0.079	-1.2 ± 0.094
AUCCAGCAAUAUUACGAAUU	-1.43 ± 0.084	-1.04 ± 0.11
AUCCAGCAAUAUUACGACGG	-4 ± 0.3	-1.8 ± 0.19
AUCCAGCAAUAUUACGACUC	-0.847 ± 0.071	0.244 ± 0.1
AUCCAGCAAUAUUACGAGCU	-2.2 ± 0.096	-2.03 ± 0.17
AUCCAGCAAUAUUACGAGGG	-2.9 ± 0.1	-1.49 ± 0.11

Sequence	self-splicing fitness (ln) (30 °C)	self-splicing fitness (ln) (37 °C)
AUCCAGCAAUAUUACGAGUC	-2.87 ± 0.17	-2.01 ± 0.21
AUCCAGCAAUAUUACGAUUA	-1.19 ± 0.094	-0.911 ± 0.1
AUCCAGCAAUAUUACGCAAA	-2.07 ± 0.16	-0.15 ± 0.11
AUCCAGCAAUAUUACGCAUC	-2.92 ± 0.18	-1.97 ± 0.14
AUCCAGCAAUAUUACGCCUA	-1.29 ± 0.19	0.121 ± 0.13
AUCCAGCAAUAUUACGCCUG	-3.86 ± 0.26	-2.09 ± 0.16
AUCCAGCAAUAUUACGCGGU	–	-3.32 ± 0.42
AUCCAGCAAUAUUACGCUAG	-2.76 ± 0.11	-1.11 ± 0.12
AUCCAGCAAUAUUACGCUGG	-3.65 ± 0.19	-1.7 ± 0.16
AUCCAGCAAUAUUACGCUGU	-2.12 ± 0.14	-2.02 ± 0.14
AUCCAGCAAUAUUACGCUUC	-3.58 ± 0.16	-2.15 ± 0.15
AUCCAGCAAUAUUACGCUUU	-0.879 ± 0.076	-0.641 ± 0.086
AUCCAGCAAUAUUACGGCAA	-0.324 ± 0.1	-0.263 ± 0.12
AUCCAGCAAUAUUACGGCAU	-0.192 ± 0.071	0.204 ± 0.082
AUCCAGCAAUAUUACGGCUC	-1.39 ± 0.078	-0.482 ± 0.099
AUCCAGCAAUAUUACGGUGG	-4.66 ± 0.33	-2.49 ± 0.21
AUCCAGCAAUAUUACGUCGU	-0.689 ± 0.062	-0.625 ± 0.077
AUCCAGCAAUAUUACGUCUG	-3.67 ± 0.23	-2.55 ± 0.25
AUCCAGCAAUAUUACGUGGG	-2.58 ± 0.1	-3.5 ± 0.13
AUCCAGCAAUAUUACGUGUC	-3.34 ± 0.16	-2.24 ± 0.14
AUCGAGCAAUAUUACGAAGA	-1.74 ± 0.44	-1.65 ± 0.38
AUCGAGCAAUAUUACGAAGC	-3.18 ± 0.39	–
AUCGAGCAAUAUUACGAAGG	-2.56 ± 0.23	-2.28 ± 0.31
AUCGAGCAAUAUUACGAAUG	–	-2.06 ± 0.28
AUCGAGCAAUAUUACGACAC	-2.4 ± 0.29	-0.469 ± 0.22
AUCGAGCAAUAUUACGACCA	-2.06 ± 0.22	-0.741 ± 0.28

Sequence	self-splicing fitness (ln) (30 °C)	self-splicing fitness (ln) (37 °C)
AUCGAGCAAUAUUACGACGU	-0.331 ± 0.096	0.0461 ± 0.12
AUCGAGCAAUAUUACGACUC	-3.4 ± 0.3	-1.98 ± 0.27
AUCGAGCAAUAUUACGACUG	-2.17 ± 0.13	-1.64 ± 0.15
AUCGAGCAAUAUUACGACUU	-0.779 ± 0.15	-0.826 ± 0.19
AUCGAGCAAUAUUACGAGGG	-1.4 ± 0.17	-2.1 ± 0.46
AUCGAGCAAUAUUACGAGUA	-3.25 ± 0.41	-1.58 ± 0.28
AUCGAGCAAUAUUACGAUGG	–	-2.17 ± 0.38
AUCGAGCAAUAUUACGAUGU	-2.9 ± 0.12	-1.76 ± 0.11
AUCGAGCAAUAUUACGCCCA	-1.77 ± 0.24	-1.37 ± 0.3
AUCGAGCAAUAUUACGCCGA	-3.08 ± 0.34	–
AUCGAGCAAUAUUACGCUAA	-3.48 ± 0.21	-2.88 ± 0.18
AUCGAGCAAUAUUACGCUCG	-2.72 ± 0.35	–
AUCGAGCAAUAUUACGCUUA	-2.01 ± 0.18	-0.429 ± 0.13
AUCGAGCAAUAUUACGGAAG	–	-0.716 ± 0.16
AUCGAGCAAUAUUACGGACC	-0.501 ± 0.48	–
AUCGAGCAAUAUUACGGUCC	-3.46 ± 0.46	–
AUCGAGCAAUAUUACGUAAG	-2.16 ± 0.44	-1.61 ± 0.3
AUCGAGCAAUAUUACGUAGU	-3.47 ± 0.14	-1.96 ± 0.15
AUCGAGCAAUAUUACGUAUG	-3.84 ± 0.19	-4.4 ± 0.46
AUCGAGCAAUAUUACGUAUU	-3.67 ± 0.21	-2.5 ± 0.18
AUCGAGCAAUAUUACGUCCA	–	0.309 ± 0.47
AUCGAGCAAUAUUACGUCUG	-3.46 ± 0.34	-1.43 ± 0.19
AUCGAGCAAUAUUACGUGGG	-4.14 ± 0.33	-2.42 ± 0.24
AUCUAGCAAUAUUACGAACA	-1.53 ± 0.14	-0.645 ± 0.12
AUCUAGCAAUAUUACGAGAG	-1.88 ± 0.11	-0.329 ± 0.1
AUCUAGCAAUAUUACGAGGC	–	-2.69 ± 0.34
